In IntAct's records for PubMed 31548606:

B1: Prelamin-A/C (Homo sapiens), P02545-1 (parent)
chain: METPSQRRATRSGAQASSTPLSPTRITRLQEKEDLQELNDRLAVYIDRVRSLETENAGLRLRITESEEVVSREVSGIKAAYEAELGDARKTLDSVAKERARLQLELSKVREEFKELKARNTKKEGDLIAAQARLKDLEALLNSKEAALSTALSEKRTLEGELHDLRGQVAKLEAALGEAKKQLQDEMLRRVDAENRLQTMKEELDFQKNIYSEELRETKRRHETRLVEIDNGKQREFESRLADALQELRAQHEDQVEQYKKELEKTYSAKLDNARQSAERNSNLVGAAHEELQQSRIRIDSLSAQLSQLQKQLAAKEAKLRDLEDSLARERDTSRRLLAEKEREMAEMRARMQQQLDEYQELLDIKLALDMEIHAYRKLLEGEEERLRLSPSPTSQRSRGRASSHSSQTQGGGSVTKKRKLESTESRSSFSQHARTSGRVAVEEVDEEGKFVRLRNKSNEDQSMGNWQIKRQNGDDPLLTYRFPPKFTLKAGQVVTIWAAGAGATHSPPTDLVWKAQNTWGCGNSLRTALINSTGEEVAMRKLVRSVTVVEDDEDEDGDDLLHHHHGSHCSSSGDPAEYNLRSRTVLCGTCGQPADKASASGSGAQVGGPISSGSSASSVTVTRSYRSVGGSGGGSFGDNLVTRSYLLGNSSPRTQSPQNCSIM
B2: Isoform 5 of Intermediate filament family orphan 1 (Homo sapiens), Q0D2I5-5 (parent)
chain: MNPLFGPNLFLLQQEQQGLAGPLGDSLGGDHFAGGGDLPPAPLSPAGPAAYSPPGPGPAPPAAMALRNDLGSNINVLKTLNLRFRCFLAKVHELERRNRLLEKQLQQALEEGKQGRRGLGRRDQAVQTGFVSPIRPLGLQLGARPAAVCSPSARVLGSPARSPAGPLAPSAASLSSSSTSTSTTYSSSARFMPGTIWSFSHARRLGPGLEPTLVQGPGLSWVHPDGVGVQIDTITPEIRALYNVLAKVKRERDEYKRRWEEEYTVRIQLQDRVNELQEEAQEADACQEELALKVEQLKAELVVFKGLMSNNLSELDTKIQEKAMKVDMDICRRIDITAKLCDVAQQRNCEDMIQMFQKKLVPSMGGRKRERKAAVEEDTSLSESEGPRQPDGDEEESTALSINEEMQRMLNQLREYDFEDDCDSLTWEETEETLLLWEDFSGYAMAAAEAQGEQQEDSLEKVIKDTESLFKTREKEYQETIDQIELELATAKNDMNRHLHEYMEMCSMKRGLDVQMETCRRLITQSGDRKSPAFTAVPLSDPPPPPSEAEDSDRDVSSDSSMR

Variants of: B1
Settings: with iffo1_human IFFO1, Q0D2I5

effect of a mutation on the interaction	Variant
disrupting interaction strength	E358K
disrupting interaction strength	R386M

Variants of: B2
Settings: with xrcc4_human XRCC4, Q13426
xrcc4_human XRCC4, Q13426, sequence (Q13426 whole entry): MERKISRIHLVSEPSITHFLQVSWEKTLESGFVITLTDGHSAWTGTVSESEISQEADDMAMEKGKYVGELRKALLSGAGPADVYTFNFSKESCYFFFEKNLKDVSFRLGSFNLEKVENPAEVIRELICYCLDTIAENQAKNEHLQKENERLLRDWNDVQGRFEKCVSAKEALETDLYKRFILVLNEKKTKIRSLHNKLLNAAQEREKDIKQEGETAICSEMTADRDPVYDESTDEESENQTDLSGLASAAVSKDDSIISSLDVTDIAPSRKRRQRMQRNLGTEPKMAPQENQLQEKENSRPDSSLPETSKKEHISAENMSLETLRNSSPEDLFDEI

effect of a mutation on the interaction	Variant
disrupting interaction strength	M516R;C519R
disrupting interaction strength	D494A;D513A;R520A
disrupting interaction strength	D494A;R520A
disrupting interaction strength	I484R;A491R
disrupting interaction strength	C519R

Variants of: B2
Settings: with lmna_human LMNA

effect of a mutation on the interaction	Variant
disrupting interaction strength	N73D;R85H

Variants of: B2
Settings: with lmna_human LMNA
Remark: another data set of the same source

effect of a mutation on the interaction	Variant
with no effect	A89T
with no effect	A89V
disrupting interaction strength	N73D
decreasing interaction strength	N73K
disrupting interaction strength	R85H
with no effect	A65P
with no effect	A65V
